These results are taken from a protein production outcome set (Wang et al. 2014).

A short description of the data set: label from the status in PepcDB records.
For “MTSFDWFFVAAYLILSFGIALYFYQRAGEDTSEFFLSGRAMPWWLAGTSMVATTFAVDTPLLVTEIVAQNGIAGNWLWWNAAIGGMLTVFFFARLWRRSGVMTDVEFVEFRYSGRVAAWLRGLKALFFGLLLNILIIGWVSLAMETVIDRLFPDLTLFGQAAFSVLGREMSAALVVTGGLILLVSVYALLSGLWGVMVTDLFQFVVAMGGTIALAVLVLDMPEIGGVAGLREQLPDETFNLLPTIGGAAEGAATFSLSALAFAAYAGVQWWASWYPGAEPGGGGYIAQRMMSAKDEPNALFATLWYTIAHFCLRPWPWIIVALAALVLYPDLDEPRAGFVLVMKDVLPPGLLGLLFASFLAAFMSTVSTQLNWGVSYLVNDFWGRFVRPDADEAHYVRVSRVLTFGVALLSLVVTLFLDTIAEAWGLLLSASAGLGLVLILRWYWWRVNAWSEMAATLAPIGLTVAALVLNVFGVQVPGLQADFPLNLYSVVGFTTVVWLAATFLTRPTDAETLDAFYRTVHPGGPGWTPVAERHPDVTPDSGLGRLALDWLVGVVLVYSTLFGTGYLILGWTLWGAGCIAVALTAAAYLWRDLQRDEISLIEMKEEKDATEER”, the protein production result is “failed”.
As for “MTSFQSTLDDDEDGIAEELAASQREISVAEFFEKNKHMLGFDSGARGLVTAVKEAVDNALDATEEAGILPDIYVEISEGRDYYTLIVEDNGPGITNAQIPKIFGKLLYGSRFHAREQSRGQQGIGISAAVLYSQLTSGKPVRIESRTQDSETANVYELIIDTDTNEPEISAETEVSAAKSDLRGTHGTRIEMALDANMRARGQLHDYIKHTAVVNPHARIELQEPGGELKSERAEEASLPAETDEILPHPHGVELGTLIKMLAETDSHSVSGFLQSEFTRVGSKTATGIIDAFRDEHFGREMRWRPPADADLEATVADAVANKDATHTAVFARTVADAVRDADSIAPAELGALVADAAADAQDDTGTSFGETVQANVVAAVRDALTSDRVADVLGPVDEATTVQKDDATVRGLAERIAAKFESGGDTDRVTRDTLDEYVFRAAENTAEYADATIGETARENVADALWARMATVPDDPPNTSALADDRDAASDLLAAMASVNVMAPPTSCLSPIEADQLEAGLRTEFDADFYAAATRDADVHGGDPFIVEAGIAYGGDIDSEGGVQLMRFANRVPLVYQRGACATTDVLGDIGWRNYNLSQPGGSGLPQGPAVIMVHVASTNVPFTSESKDAIANVPEIEAEIELAVREAARELKSFLQKRQSMRKRQQKQDVIMDILPTMAEKVGELTGRGGVDVSDSLARIMNNVLVERARSDDGQTVTLRVENHGTGSVDVDVTDIVSAEPDGVGDDASVVAMDDEYFVKWTPAVAGDDAAELTYSVDADADCELSVSGVADARLTVSEADT”, the protein production result is “failed”.
Turning to “MTSGSRWDGIIPHPGILAFAMALYLLGFVLDASGRPLAYGFLTGDMVVHFFTFPGLREQFIDYLLATAFWIFISNITQVTVFIFSLATFYPVLKIFVLAGALLHNLLVGWGVRGLLIYAGTLHLHLEVTGCLLSLQAALVFVRSLLGTIQHRSRGPLVTALRENLAYLIPLIILLFAIAAILEVFWSTWWVYNLTHGPVSWRYFYTHVFSVEL”, the protein production entry is “failed”.
With “MTSPENPDLPDADDAYVDSGPGTQPASLEDLDMDSASTMRPMATQAVYRPEFDDTDGTSRGTVVTEAYDQVTMATRALSPMRRLGGGLVEIPRVPERDPLTALMTNPVVAESKRFCWNCGKPVGRSTPDGRALSEGWCPHCGSPYSFLPQLSPGDIVADQYEIKGCIAHGGLGWVYLAFDKNVNDRPVVLKGLVHSGDAEAQAIAMAERQFLAEVTHPGIVKIYNFVEHEDKHGNPVGYIVMEYVGGTSLKQARGAKLPVAEAIGYMLEILPALGYLHSIGLAYNDLKPENIMITEEQLKLIDLGAVSRLNSYGYLYGTPGYQAPEIVRTGPTVATDIYTVGRTLAALTLSLRTRRGRYVDGLPSDDPVLETYDSYHRLLRRAIDPDPRRRFTSAEEMSSQLLGVLREVVATDTGVPRPGLSTVFSPSRSTFGVDLLVAHTDVYVDGQVHSEKLTAQEIVRALPVPLVDRTDVGAPMLVASVLSEPVHTLDQLRAARHGALDTEGIDLNESVELPLMEVRALLDLGDVAKATRKLEDLAARVGWRWRLVWFKAVSEMLSADYDSATKHFTEVLDTLPGELAPKLALAATAELAGTADELKFYKTVWSTDNGVISAGFGLARAQSVAGERDMAVQTLDEVPPTSRHFTTARLTSAVTLLSGRSTSEITEQHIRDAARRVEALPDSEPRVLQIRALVLGTALDWLADNTASSNHILGFPFTEHGLKLGVEASLRALARIAPTQSHRYALVDLANSVRPMSTF” the entry was “failed”; with “MTSPFHRLCRTTLAAGFLFGMASAALAVGDSNDDTNPPPKTETTKTCTGGKVWDKQRKECVTPKKNSFNDDDLYKFAREFAYAGQYENAITVLNLARNQNDPRILNYLGYANRKAGRMELGMSYYRKALQADENYILARSYMGMALVEQGDIQGARVQLVEIRDRGGEDTWAYRALLQSLNGYRTY”, “failed”; with “MTSPLRPEDPTRVGDYDLVARIGKGGQGVVYLGKAPDGTRVAVKVMETSWASNSRARSRFAKEIEAASKVAPFCTAALLDSDINADPPYIVSEYIEGPSLRDAVLRDGPRTGAALDRLAISTATALVAIHQAGVIHRDFKPANVLLGPDGPRVIDFGIARHSEATVTATDSIVGTPAYMAPEQVEGRELTPAVDIFAWAGVMVFAATGQSPFHDETLPAIINRVLHQPPRLDGVDERLRPLLEACLAKEPERRPTAVQVLGVLVGHDPATLPQVPVEEVLENGYTAALNEQTQIAATAALPIPIGDQAPEPAPTAVMPAAEDTPAPESRTPVSGLAALAANRPADEAPASSPPSGPLRTTSGLAALVNTGENKQPTASSPGEGPPRRSAGPGHQPLPPRSTRERKTVLSWLVAAGILIIVLAGGWFLIDTFLLSPNGQSPEATPVDGTRRDTPAQDGIDDSVPSPSAIDPDTPTSSDTGYPGGELYPSLPYDDMSQTDPMEEPHLNPTIPGEGPWHSPPAGEEAPGQPHGGGAEEGGSEGGEQPGTGGPGGSGEGGAGVGRVAVSPAAP”, “failed”.
As for “MTSRPSSDQTWQPIDGRVALIAPASAIATDVLEATLRQLEVHGVDYHLGRHVEARYRYLAGTVEQRLEDLHNAFDMPDITAVWCLRGGYGCGQLLPGLDWGRLQAASPRPLIGFSDISVLLSAFHRHGLPAIHGPVATGLGLSPLSAPREQQERLASLASVSRLLAGIDHELPVQHLGGHKQRVEGALIGGNLTALACMAGTLGGLHAPAGSILVLEDVGEPYYRLERSLWQLLESIDARQLGAICLGSFTDCPRKEVAHSLERIFGEYAAAIEVPLYHHLPSGHGAQNRAWPYGKTAVLEGNRLRW”, the protein production entry is “not failed”.
With “MTSTHQAAHRTGSTMRLRILIATDTYPPDVNGASYFTYRLATGLAERGHDVHVVCASASGPPRVEVQDGVVLHRMRSVPVLVHPTMRTALPLGLTGHIARIVDRLAPHVVHVQSHFTISRTALRCGRMAGVPVVLTNHFMPDNLFAHAHIPPRLHGVVGSLAWQDMIRVARTADYVTTPTQRAAELLASKGFTRTVEAVSCGIDLDRFRPRPQDRAQARAHFGLPDRETMVFVGRLDEEKRIDESIRALPVLLRHRDVQLVLAGTGQRREELERLARSLGVAERVHFLGFVPDDDLPLVYVAADLFVIGSVAELQSIATLEAMSTGLPVVAADALALPHLVRPGRNGYLYPPGDVAQLAQRLLDVLESPDRRTAMGRASRDIAQTHDHHRSLDRFEQIYTEVRPRSWTLSRSASPAARQRDTTVAA”, the protein production result is given as “failed”.
As to “MTSYSLEDFNTPLECAPLARWERKRKEQLDRTSKTPNKTPQGDRFIPNRNVMNIEVSRLNLQQEYYGKENNQNSSSLLDSHMDNVEWNSGKDSPACHHYQSALASSLLQNSYHEEHPQSKILTFKQKAPKPQEGYVNSLKVLYSQNMPQISEQRKRMIRHIPQTPDRILDAPELVDDYYLNLLDWNHENILAVALGSSVYLWNASTGDIQELCNVSQDEMICSVSWVPDGHHLAVGTSMKDVQLWDTQRGRQVRKMHSHSSRVGCLAWNGPILSSGSRDTTIHHHDVRIAQHHVETLRGHEQEVCGLKWNVDGSQLASGGNDNLLMIWDHFHSNQPKYRLDHHHAAVKAIAWCPWQTHLLASGGGTADRTIKFWNTTTGACLQSIDTKSQVCALIWNRHDKEIVSSHGFSQNQLIVWKYPSMVKMAELTGHTSRVLHLSLSPDGQTVVSGAGDETLRFWRVFEASESKLKSSNKTLGHSQKSIMRTCNIR”, the protein production entry is listed as “not failed”.
Consider “MTTDIDLEQGGAFGYHRRSLDGSDVSVYYSDGEDVMSCYSYFYSTTGGSYEYEGDQSRKVSSVMSPSSSEIDDDDATAPPEKDCRICHLGVETSGGGAIELGCSCKDDLAVAHRQCAETWFKIKGDKTCEICQSVARNVGGANEMVGSTMEERELRNGEETAAGEGGGATVVENRWQPQRVVNLVLACMVFGFFISWIFHFHVSSSS”, for which the protein production entry was “failed”.
Turning to “MTTDKQTSINLALSTINGKWKLSLMDELFQGTKRNGELMRALDGITQRVLTDRLREMEKDGLVHRESFNELPPRVEYTLTPEGYALYDALSSLCHWGETFAQKKARLNK”, the protein production entry is “not failed”.
For the sequence “MTTENTTALLLIDFQNDYFSTYNGAKNPLVGTEAAAEQGAKLLAKFRQQGLPVVHVRHEFPTDEAPFFLPGSDGAKIHPSVAAQEGEAVVLKHQINSFRDTDLKKVLDDAGIKKLVIVGAMTHMCIDAVTRAAEDLGYECAVAHDACATLDLEFNGITVPAAQVHAAFMSALSFAYANVASADELIAGL”, the protein production entry is listed as “not failed”.
On to “MTTETFLVEIGTEELPPKALRSLAESFATHFTAELDNANITHGDVSWFAAPRRLAIKVANMAKSQADRIVEKRGPAIAQAFDAEGKPTKAAEGWARGNGITVDQAERLSTDKGEWLFYRAEVKGEAVNQLLAGMVSNALAKLPIPKLMRWGDKETHFVRPVHTVTLLLGDTLIDGEILGVQSARIIRGHRFMGEAEFTIDNADQYPEILYERGKVIADYENRKSIILHDARLAAEKLGGVADLSDSLVEEVTSLVEWPVVLTAKFEEKFLEVPAEALVYTMKGDQKYFPVYDKQGALLPHFIFVSNIESSDPQQIISGNEKVVRPRLADAEFFFKTDRKQRLEDNLPRLETVLFQKNLGSLRDKTDRIQALAGFIAEKMGADVNKATRAGLLSKCDLMTNMVFEFTDTQGVMGMHYARHDGEDEEVAVALKEQYQPRFAGDALPSNPVASAVAIAEKMDTLAGIFGIGQHPKGDKDPFALRRAALGVLRIIVEQDLPLDIEELTQEAARLYGDKLTNQNVVSDVVEFMLGRFRAWYQELGYSIDTIQAVLARRPTQPADFNARVKAVTYFRTLEEAAALAEANKRVSNILAKSADVKLNDKVLASVLKAPEEVQLAANLSVLQDKLAPLFAERKYQEALVELASLRDVVNNFFDKVMVMDKDEEIRVNRLTMLHELRELFLKVADISVLQ”, for which the protein production entry was “failed”.
On to “MTTFLQRDDFAVTARVLGALFYYSPESHETAPLVQALLNDDWQAQWPLDAEALAPVAAMFKTHSEESLPQAWQRLFIGPYALPSPPWGSVWLDRESVLFGDSTLALRQWMRENGIQFEMQQNEPEDHFGSLLLLAAWLAENDRHHECEQLLAWHLFPWSSRFLDVFIDHAGHPFYQALGQLARLTLAQWQAQLIIPVAVKPLFR”, for which the protein production entry is on record as “not failed”.
As for “MTTIAVLGNGRVGGNLATALTRAGHEVTVADRTPGAAADTARTAQIVINATPGAGSLDRLAALRDELRDKILVDVSNATNDGPDGLPADLIYPGSSLAEHLQEALPETRVVKTLNTMLFPVMTAPATLTQTPTAFLSGEDPQAKQTVRELLTDLGWHKEWIADLGGIQTARATEAAILFVPHVIGATGFTPFAISIARLEHHHHHH”, the protein production result is “not failed”.
With “MTTIHFHNVYVASRGTSVGLLEKQGPLGNRFDYTHEDNTCQQDSFEKAERYMLQEAVDATIRKSDYSIKDIEVMIGGDLINQLTSSHYFAKEFPISFLGMYAACASSSLVIGQAALWVEHQLAKTALAFTSSHVATAERQFRFPNEYGIQKKETTTCTVTGAGAVLLSRKKSKLKVASFTVGKVVDWQYNDANDMGVAMAPAAYDTLTTYFKDTNQSFQDFDLIVTGDLSKLGFAFLRDLLLQNGYCCEEKLQDCGLMIYDIVKQNVFCGGSGCACSMCVSMTKLLDLLEQQEARRIMVLATGALLSPIAIQQKESIPCIAHAIVYERS” the entry was “failed”.
